Measurements published in patent publication US20210214734A1, “METHODS FOR SELECTIVELY INHIBITING MOLECULAR CHAPERONE CLIENTS AND COMPOSITIONS FOR USE THEREOF” (Research Foundation for the State University of New York, priority 2020, published 2021).
Where no end group is shown, it is not given here. [ ]: non-standard residue; d: D form. Phe(4-F) = N[C@@H](Cc1ccc(F)cc1)C(=O)O

Legend:
[1] = biological target: T1, Cdc37 (Homo sapiens, UniProt Q16543); assay: 19F NMR R2 filter binding to Cdc37; parameters: dose or concentration left out as unconfirmed
T1 sequence (Q16543 1-378): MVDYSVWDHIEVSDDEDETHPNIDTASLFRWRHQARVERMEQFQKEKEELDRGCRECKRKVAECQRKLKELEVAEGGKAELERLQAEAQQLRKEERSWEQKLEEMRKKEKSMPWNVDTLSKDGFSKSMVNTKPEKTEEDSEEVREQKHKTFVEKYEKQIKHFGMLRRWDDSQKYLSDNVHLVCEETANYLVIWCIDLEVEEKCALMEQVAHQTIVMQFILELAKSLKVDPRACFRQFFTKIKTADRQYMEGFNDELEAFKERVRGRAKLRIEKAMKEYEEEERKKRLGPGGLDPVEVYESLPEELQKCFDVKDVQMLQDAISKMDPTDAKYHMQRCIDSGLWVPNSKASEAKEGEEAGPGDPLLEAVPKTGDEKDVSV
Method: (§1) All the NMR experiments have been recorded at 298° K with a Bruker FT NMR Avance III 600-MHz spectrometer equipped with a 5-mm CryoProbe™ QCI^1H/^19F-^13C/^15N-D quadruple resonance, a shielded z-gradient coil, and the automatic sample handling system such as a SAMPLEJET™ brand sampling system with temperature control.
(§2) ^19F NMR experiments are a well-recognized approach to study the interaction between small molecules or peptides and proteins. […] This is due to the large dynamic range defined as the difference of the NMR measured response in the free and protein-bound states. ^19F R2 filter NMR experiments are among the most sensitive techniques for weak binding detection. See Dalvit et al., Journal of American Chemical Society, 125, 7696-7703 (2003). The transverse relaxation rate R2 is a very sensitive parameter for these studies, due to the large Chemical Shift Anisotropy (CSA) of ^19F nucleus and to the large exchange contribution See Dalvit et al., Journal of American Chemical Society, 125, 7696-7703 (2003); the compounds/peptides that interact with the receptor will show a broadening and intensity reduction in their ^19F NMR signal in presence of the protein
(§3) The 5 mM stock solution peptides were prepared in 100% in DMSOd6. Solubility and purity of the peptides in PBS buffer pH 7.4, 10% D2O (for the lock signal) were checked by ^19F and ^1H NMR spectroscopy. 1D ^19F NMR experiments were recorded with proton decoupling with the Waltz-16 scheme during the acquisition period with an acquisition time of 0.95 s, a relaxation delay of 30 s. whereas 1D version of the NOESY (nuclear Overhauser effect spectroscopy) pulse sequence with H2O signal presaturation, a mixing time of 10 ms and a relaxation delay of 30 s was used for ^1H NMR experiments.
(§4) For the binding studies R2 filter experiments were recorded with the Carr-Purcell-Meibom-Gill scheme with a time interval of 23.5 ms between the 180° pulses with a loop of 2, an acquisition time of 0.95 s a D1 of 5 s and a number of scans of 512. All the ^19F chemical shifts are referenced to the CFCl3 signal in water.

[2] = test system: full length human Hsp90; assay: 19F NMR R2 filter binding to Hsp90; parameters: 19F NMR signal change in presence of Hsp90 (binding): dose or concentration left out as unconfirmed; conditions: for 19F NMR signal change in presence of Hsp90 (binding): 19F R2 filter, peptides tested individually, A01
Method: as §1, §2, §3, §4

[3] = biological target: Human Serum Albumin (HSA) (Homo sapiens, UniProt P02768); assay: 19F NMR control for non-specific binding to HSA; conditions: 40 mM A01, A02 with 10 mM HSA
Method: as §1, §2, §3, §4

[4] = test system: c-Abl; assay: c-Abl protein level by immunoblot in treated HEK293 cells; type: cell-based, human; conditions: 10 μM A01 or A02 with and without TAT, 36 hours
Method: (§5) Human embryonic kidney (HEK293) and 786-O cells were acquired from the American Type Culture Collection (ATCC). HEK293 cells were grown in Dulbecco's Modified Eagle Medium (DMEM, Millipore-Sigma) and 786-O cells were grown in Roswell Park Memorial Institute (RPMI-1640, Millipore-Sigma) medium supplemented with 10% fetal bovine serum (FBS, Millipore-Sigma) in a CellQ incubator (Panasonic Healthcare) at 37° C. in 5% CO2.
(§6) Cultured cells were seeded 24 h prior to treatment. […]
(§7) Protein extraction from mammalian cells was carried out using methods previously described. See Woodford et al., Cell Reports, 14, 872-884 (2016). For immunoprecipitation, protein lysates were incubated with Hsp90 antibody for 2 h followed by incubation with protein G agarose (Qiagen) for 2 h at 4° C. Immunopellets were washed 4 times with fresh lysis buffer (20 mM Tris (pH7.4), 100 mM NaCl, 1 mM MgCl2, 0.1% NP40, protease inhibitor cocktail (Roche), and PhosSTOP (Roche)) and eluted with 5× Laemmli buffer. Precipitated proteins were separated by SDS-PAGE and transferred to nitrocellulose membranes. Co-immunoprecipitated proteins were detected by immunoblotting with the indicated antibodies, diluted in 5% non-fat dry milk reconstituted in TBST.

[5] = test system: c-Abl-Hsp90 interaction; assay: Hsp90 immunoprecipitation, c-Abl association in HEK293 cells; type: cell-based, human; conditions: 10 μM, 36 hours, IP of endogenous Hsp90
Method: as §5, §6, §7

[6] = test system: c-Src; assay: Immunoblot of unrelated client c-Src in HEK293 cells; type: cell-based, human; conditions: 10 μM, 36 hours, selectivity control
Method: as §5, §6, §7

[7] = test system: Akt; assay: Immunoblot of unrelated client Akt in HEK293 cells; type: cell-based, human; conditions: 10 μM, 36 hours, selectivity control
Method: as §5, §6, §7

[8] = biological target: Aha1 (Homo sapiens, UniProt O95433); assay: 19F NMR R2 filter binding to Aha1; conditions: cAbl peptides at 10 mM
Sequence of Aha1 (Homo sapiens, UniProt O95433) (O95433 whole entry, species assumed): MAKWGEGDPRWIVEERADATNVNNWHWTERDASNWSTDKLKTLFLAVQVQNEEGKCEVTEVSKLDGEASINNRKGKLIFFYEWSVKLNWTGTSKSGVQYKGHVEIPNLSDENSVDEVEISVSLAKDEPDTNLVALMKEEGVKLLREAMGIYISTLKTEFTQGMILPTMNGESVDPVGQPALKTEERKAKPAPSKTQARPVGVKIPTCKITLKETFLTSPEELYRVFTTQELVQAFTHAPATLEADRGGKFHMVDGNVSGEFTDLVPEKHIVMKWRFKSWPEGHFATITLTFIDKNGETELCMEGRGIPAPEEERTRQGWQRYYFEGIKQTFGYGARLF
Method: as §1
^19F NMR experiments are a well-recognized approach to study the interaction between small molecules or peptides and proteins. […] This is due to the large dynamic range defined as the difference of the NMR measured response in the free and protein-bound states. ^19F R2 filter NMR experiments are among the most sensitive techniques for weak binding detection. […]
as §3, with “Solubility and purity of the peptides in PBS buffer pH 7.4, 10% D2O (for the lock signal) were checked by ^19F and ^1H NMR spectroscopy.” left out
For the binding studies R2 filter experiments were recorded with the Carr-Purcell-Meibom-Gill scheme with a time interval of 23.5 ms between the 180° pulses with a loop of 2, an acquisition time of 0.95 s a D1 of 5 s and a number of scans of 512. […]

[9] = biological target: Hsp90β-FLAG (Homo sapiens, UniProt P08238); assay: Biotinylated peptide streptavidin pulldown of Hsp90β; type: binding; conditions: lysate of HEK293 overexpressing Hsp90β-FLAG
Sequence of Hsp90β-FLAG (P08238 whole entry): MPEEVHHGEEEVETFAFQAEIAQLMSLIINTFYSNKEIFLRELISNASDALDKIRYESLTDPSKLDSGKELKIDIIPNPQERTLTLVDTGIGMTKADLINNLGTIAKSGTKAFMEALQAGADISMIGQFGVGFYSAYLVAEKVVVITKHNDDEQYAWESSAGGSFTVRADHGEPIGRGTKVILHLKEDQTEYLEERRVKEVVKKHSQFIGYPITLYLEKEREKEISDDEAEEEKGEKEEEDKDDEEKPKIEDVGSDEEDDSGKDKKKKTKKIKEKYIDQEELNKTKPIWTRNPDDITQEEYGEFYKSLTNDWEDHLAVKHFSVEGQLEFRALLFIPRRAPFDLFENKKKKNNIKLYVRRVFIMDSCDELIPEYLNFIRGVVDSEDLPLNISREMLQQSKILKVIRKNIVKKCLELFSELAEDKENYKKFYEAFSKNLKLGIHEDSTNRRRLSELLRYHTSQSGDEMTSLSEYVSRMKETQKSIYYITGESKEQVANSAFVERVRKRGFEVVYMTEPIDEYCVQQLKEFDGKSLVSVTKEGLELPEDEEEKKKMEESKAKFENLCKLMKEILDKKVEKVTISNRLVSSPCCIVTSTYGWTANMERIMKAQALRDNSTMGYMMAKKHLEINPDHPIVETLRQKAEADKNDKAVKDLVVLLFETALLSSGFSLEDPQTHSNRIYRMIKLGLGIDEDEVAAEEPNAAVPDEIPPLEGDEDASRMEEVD
Method: (§8) Total cell lysates prepared as described above were incubated with the indicated amounts of biotinylated peptide at 4° C. for 1 h. Streptavidin agarose beads (ThermoScientific) were added and incubated 1 additional hour with gentle rotation. Bound Hsp90 was detected by immunoblotting as described herein.

[10] = biological target: Hsp90α-FLAG (Homo sapiens, UniProt P07900); assay: Biotinylated peptide streptavidin pulldown of Hsp90α; type: binding
Method: as §8

[11] = test system: Cdk4; assay: Immunoblot of unrelated client Cdk4 in HEK293 cells; type: cell-based, human; conditions: 10 μM, 36 hours, selectivity control
Method: as §5, §6, §7

[12] = test system: Aha1-Hsp90 complex; assay: Hsp90 immunoprecipitation, Aha1-Hsp90 complex in HEK293 cells; type: cell-based, human; conditions: 10 μM, 36 hours
Method: as §5, §6, §7

[13] = biological target: T2, Human Serum Albumin (human, UniProt P02768 25-609); assay: 19F NMR
T2 construct: also called HSA

[14] = biological target: T3, Aha1 (UniProt O95433 1-338, limits assumed); assay: 19F NMR R2 filter
T3 construct: Protein used in the 19F NMR experiments
T3 sequence (O95433 whole entry): as the sequence (O95433 whole entry, species assumed) above

Molecule: FGTVYKGKWGGGGF(F)STKPQLAGGGNVTAPTPQ (FGTVYKGKWGGGG[Phe(4-F)]STKPQLAGGGNVTAPTPQ) [B-Raf-02]
- binding to Cdc37 by 19F NMR [1]: bound to Cdc37
- 19F NMR signal change in presence of Hsp90 (binding) [2]: no or very weak interaction
- binding interaction with HSA by 19F NMR [3]: no interactions were detected
- binding interaction with HSA by 19F NMR ([3]; listed as Braf02-pep): do not interact with HSA

Molecule: LGGGQF(F)GEVYGGVAVKTLGGGEFLDEAAVMK (LGGGQ[Phe(4-F)]GEVYGGVAVKTLGGGEFLDEAAVMK) [A01, F(F) = 4-Fluoro-L-phenylalanine]
- c-Abl protein levels [4]: decrease of c-Abl protein levels
- dissociation of c-Abl from Hsp90 [5]: dissociation of c-Abl from Hsp90
- c-Src stability or activity [6]: neither the related kinase c-Src nor the client kinases Cdk4 or Akt showed a defect in stability or activity
- Akt stability or activity [7]: neither the related kinase c-Src nor the client kinases Cdk4 or Akt showed a defect in stability or activity
- binding to Aha1 by 19F NMR [8]: but not Aha1
- binding to Hsp90β in pulldown [9]: binds with higher affinity to both isoforms of Hsp90
- binding to Cdc37 by 19F NMR [1]: showed the ability to bind Cdc37
- binding to Hsp90 when A01 and A02 are mixed ([2]; 19F NMR, peptides mixed): continue to bind to Hsp90 even when they are mixed
- 19F NMR signal change in presence of Hsp90 (binding) [2]: decrease in the presence of Hsp90, indicating peptide-protein binding
- Hsp90 isoform specificity ([10]; Hsp90α vs Hsp90β, biotinylated peptide pulldown): neither peptide demonstrates isoform specificity
- binding to Hsp90α in pulldown ([10]; biotinylated peptide, lysate of HEK293 overexpressing Hsp90α-FLAG): binds with higher affinity to both isoforms of Hsp90
- Cdk4 stability or activity [11]: neither the related kinase c-Src nor the client kinases Cdk4 or Akt showed a defect in stability or activity
- Aha1-Hsp90 complex formation [12]: decreased Aha1-Hsp90 complex formation
- binding interaction with HSA by 19F NMR [3]: neither A01 nor A02 showed binding interaction with HSA
- binding interaction with HSA by 19F NMR ([3]; listed as AblO1): do not interact with HSA

B1: A02 (peptide)
peptide: [Phe(4-F)]GGSPYPGIDLSQVYELLEK
notes: also called peptide A02; Abl02
- binding result [13]: no binding (tested: 40 mM A02 with 10 mM HSA)

B2: B-Raf-01 (peptide)
peptide: GYSTKPQLAGGGNVTAPTPQG[Phe(4-F)]QHSGS
notes: also called Braf01-pep
- binding result [13]: no binding

B3: A01 (peptide)
peptide: LGGGQ[Phe(4-F)]GEVYGGVAVKTLGGGEFLDEAAVMK
notes: also called peptide A01; Abl01
- binding result [14]: no binding (tested: 10 mM of each cAbl peptide)
- binding result [13]: no binding (tested: 40 mM A01 with 10 mM HSA)

B4: B-Raf-02 (peptide)
peptide: FGTVYKGKWGGGG[Phe(4-F)]STKPQLAGGGNVTAPTPQ
notes: also called Braf02-pep
- binding result [13]: no binding
